B1: TetR (I194T, 1-206)-CIB1 (-NLS) fusion construct as released from the TetR (I194T, 1-206)-CIB1 (-NLS)-T2A-Cry2 PHR (L348F)-p65AD-NLSx2 fusion construct (protein, part only)
chain: MARLDKSKVINSALELLNEVGIEGLTTRKLAQKLGVEQPTLYWHVKNKRALLDALAIEMLDRHHTHFCPLEGESWQDFLRNNAKSFRCALLSHRDGAKVHLGTRPTEKQYETLENQLAFLCQQGFSLENALYALSAVGHFTLGCVLEDQEHQVAKEERETPTTDSMPPLLRQAIELFDHQGAEPAFLFGLELITCGLEKQLKCESGSPKKKHMEFNGAIGGDLLLNFPDMSVLERQRAHLKYLNPTFDSPLAGFFADSSMITGGEMDSYLSTAGLNLPMMYGETTVEGDSRLSISPETTLGTGNFKAAKFDTETKDCNEAAKKMTMNRDDLVEEGEEEKSKITEQNNGSTKSIKKMKHKAKKEENNFSNDSSKVTKELEKTDYI
modifications: residual T2A residues at C-terminus
B2: rTetR (I194T, V16 mutation, 1-206)-CIB1 (-NLS) from the T2A construct (protein, part only; not given: Leftover T2A residues, part only)
chain, part: MARLDKSKIINSALELLNGVGIEGLTTRKLAQKLGVEQPTLYWHVKNKRALLDALPIEMLDRHHTHSCPLEGESWQDFLRNNAKSYRCALLSHRDGAKVHLGTRPTEKQYETLENQLAFLCQQGFSLENALYALSAVGHFTLGCVLEEQEHQVAKEERETPTTDSMPPLLKQAIELFDRQGAEPAFLFGLELITCGLEKQLKCESGSPKKKHMEFNGAIGGDLLLNFPDMSVLERQRAHLKYLNPTFDSPLAGFFADSSMITGGEMDSYLSTAGLNLPMMYGETTVEGDSRLSISPETTLGTGNFKAAKFDTETKDCNEAAKKMTMNRDDLVEEGEEEKSKITEQNNGSTKSIKKMKHKAKKEENNFSNDSSKVTKELEKTDYI
B3: rTetR (I194T, M2 mutation, 1-206)-CIB1 (-NLS) from the T2A construct (protein, part only; not given: Leftover T2A residues, part only)
chain, part: MARLDKSKVINGALELLNGVGIEGLTTRKLAQKLGVEQPTLYWHVKNKRALLDALPIEMLDRHHTHFCPLEGESWQDFLRNNAKSFRCALLSHRDGAKVHLGTRPTEKQYETLENQLAFLCQQGFSLENALYALSAVGHFTLGCVLEEQEHQVAKEERETPTTDSMPPLLRQAIELFDRQGAEPAFLFGLELITCGLEKQLKCESGSPKKKHMEFNGAIGGDLLLNFPDMSVLERQRAHLKYLNPTFDSPLAGFFADSSMITGGEMDSYLSTAGLNLPMMYGETTVEGDSRLSISPETTLGTGNFKAAKFDTETKDCNEAAKKMTMNRDDLVEEGEEEKSKITEQNNGSTKSIKKMKHKAKKEENNFSNDSSKVTKELEKTDYI
B4: rTetR (I194T, S2 mutation, 1-206)-CIB1 (-NLS) from the T2A construct (protein, part only; not given: Leftover T2A residues, part only)
chain, part: MARLDKSKVINSALELLNGVGIEGLTTRKLAQKLGVEQPTLYWHVKNKRALLDALPIEMLDRHHTHFCPLEGESWQDFLRNNAKSFRCALLSHRDGAKVHLGTRPTEKQYETLENQLAFLCQQGFSLENALYALSAVGHFTLGCVLEEQEHQVAKEERETPTTDSMPPLLRQAIELFDRQGAEPAFLFGLELITCGLEKQLKCESGSPKKKHMEFNGAIGGDLLLNFPDMSVLERQRAHLKYLNPTFDSPLAGFFADSSMITGGEMDSYLSTAGLNLPMMYGETTVEGDSRLSISPETTLGTGNFKAAKFDTETKDCNEAAKKMTMNRDDLVEEGEEEKSKITEQNNGSTKSIKKMKHKAKKEENNFSNDSSKVTKELEKTDYI
B5: rTetR (I194T, V10 mutation, 1-206)-CIB1 (-NLS) from the T2A construct (protein, part only; not given: Leftover T2A residues, part only)
chain, part: MARLDKSKVINSALELLNGVGIEGLTTRKLAQKLGVEQPTLYWHVKNKRALLDALPIEMLDRHHTHSCPLEGESWQDFLRNNAKSYRCALLSHRDGAKVHLGTRPTEKQYETLENQLAFLCQQGFSLENALYALSAVGHFTLGCVLEEQEHQVAKEERETPTTDSMPPLLKQAIELFDRQGAEPAFLFGLELITCGLEKQLKCESGSPKKKHMEFNGAIGGDLLLNFPDMSVLERQRAHLKYLNPTFDSPLAGFFADSSMITGGEMDSYLSTAGLNLPMMYGETTVEGDSRLSISPETTLGTGNFKAAKFDTETKDCNEAAKKMTMNRDDLVEEGEEEKSKITEQNNGSTKSIKKMKHKAKKEENNFSNDSSKVTKELEKTDYI
B6: rTetR (I194T, rtTA mutation, 1-206)-CIB1 (-NLS) from the T2A construct (protein, part only; not given: Leftover T2A residues, part only)
chain, part: MARLDKSKVINSALELLNEVGIEGLTTRKLAQKLGVEQPTLYWHVKNKRALLDALAIEMLDRHHTHFCPLKGESWQDFLRNNAKSFRCALLSHRNGAKVHSDTRPTEKQYETLENQLAFLCQQGFSLENALYALSAVGHFTLGCVLEDQEHQVAKEERETPTTDSMPPLLRQAIELFDHQGAEPAFLFGLELITCGLEKQLKCESGSPKKKHMEFNGAIGGDLLLNFPDMSVLERQRAHLKYLNPTFDSPLAGFFADSSMITGGEMDSYLSTAGLNLPMMYGETTVEGDSRLSISPETTLGTGNFKAAKFDTETKDCNEAAKKMTMNRDDLVEEGEEEKSKITEQNNGSTKSIKKMKHKAKKEENNFSNDSSKVTKELEKTDYI
B7: TetR (I194T, H100Y, 1-206)-CIB1 (-NLS) from the T2A construct (protein, part only)
chain: MARLDKSKVINSALELLNEVGIEGLTTRKLAQKLGVEQPTLYWHVKNKRALLDALAIEMLDRHHTHFCPLEGESWQDFLRNNAKSFRCALLSHRDGAKVYLGTRPTEKQYETLENQLAFLCQQGFSLENALYALSAVGHFTLGCVLEDQEHQVAKEERETPTTDSMPPLLRQAIELFDHQGAEPAFLFGLELITCGLEKQLKCESGSPKKKHMEFNGAIGGDLLLNFPDMSVLERQRAHLKYLNPTFDSPLAGFFADSSMITGGEMDSYLSTAGLNLPMMYGETTVEGDSRLSISPETTLGTGNFKAAKFDTETKDCNEAAKKMTMNRDDLVEEGEEEKSKITEQNNGSTKSIKKMKHKAKKEENNFSNDSSKVTKELEKTDYI
modifications: T2A residues at C-terminus

From patent publication US20210340548A1 come the findings set out here.

For this test, the target named is Cry2 PHR (L348F)-p65AD-NLSx2 fusion construct as released from the TetR (I194T, 1-206)-CIB1 (-NLS)-T2A-Cry2 PHR (L348F)-p65AD-NLSx2 fusion construct. Put plainly: cell-based or functional assay.
Sequence of Cry2 PHR (L348F)-p65AD-NLSx2 fusion construct as released from the TetR (I194T, 1-206)-CIB1 (-NLS)-T2A-Cry2 PHR (L348F)-p65AD-NLSx2 fusion construct (Q96524 other isoform, or with tags, fused parts or gaps L348F I194T L348F L348F I194T L348F): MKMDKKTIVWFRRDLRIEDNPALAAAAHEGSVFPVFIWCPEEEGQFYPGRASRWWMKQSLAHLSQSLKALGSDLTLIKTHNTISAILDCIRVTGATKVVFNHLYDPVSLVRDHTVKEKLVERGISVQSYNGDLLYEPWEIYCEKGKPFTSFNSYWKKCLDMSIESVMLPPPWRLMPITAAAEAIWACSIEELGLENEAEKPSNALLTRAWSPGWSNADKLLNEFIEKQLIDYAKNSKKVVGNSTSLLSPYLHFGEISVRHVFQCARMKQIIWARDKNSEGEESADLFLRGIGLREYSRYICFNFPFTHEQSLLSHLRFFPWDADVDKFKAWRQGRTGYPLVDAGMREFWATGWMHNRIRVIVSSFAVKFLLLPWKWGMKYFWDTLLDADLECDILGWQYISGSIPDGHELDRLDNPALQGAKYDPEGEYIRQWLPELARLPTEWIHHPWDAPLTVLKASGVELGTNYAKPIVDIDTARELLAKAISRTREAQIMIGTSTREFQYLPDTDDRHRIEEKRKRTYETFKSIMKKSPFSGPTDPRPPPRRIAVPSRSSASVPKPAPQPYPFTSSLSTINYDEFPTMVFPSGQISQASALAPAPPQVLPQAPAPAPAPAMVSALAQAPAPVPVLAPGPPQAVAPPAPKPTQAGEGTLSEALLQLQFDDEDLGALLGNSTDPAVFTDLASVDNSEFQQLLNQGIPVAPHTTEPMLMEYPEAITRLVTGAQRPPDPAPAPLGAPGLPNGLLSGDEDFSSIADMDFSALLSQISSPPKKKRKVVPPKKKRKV
For the molecule B1, the Average of the Light/Dark ratio, Dox 0 ng/mL is 19; the Average of the Light/Dark ratio, Dox 0 ng/mL, 36 h light is 2780; the Average of the Light/Dark ratio, Dox 75 ng/mL stood at 1.1; the Average of the Light/Dark ratio, Dox 500 ng/mL, 36 h light stood at 0.2. Moreover, the Light/Dark, Dox 0 ng/mL is 36.2; the Light/Dark, Dox 0 ng/mL, 36 h light was found to be 525; the Light/Dark, Dox 75 ng/mL came out at 0.9; the Light/Dark, Dox 500 ng/mL, 36 h light turned out to be 0.2. The Ub-ELuc luciferase, Dark, Dox 0 ng/mL turned out to be 4 relative; the Ub-ELuc luciferase, Dark, Dox 0 ng/mL, 36 h light turned out to be 15.4 relative; the Ub-ELuc luciferase, Dark, Dox 75 ng/mL is 0.1 relative; the Ub-ELuc luciferase, Dark, Dox 500 ng/mL, 36 h light was found to be 9.9 relative. Further, the Ub-ELuc luciferase, Light, Dox 0 ng/mL came to 76.7 relative; the Ub-ELuc luciferase, Light, Dox 0 ng/mL, 36 h light is 8090 relative; the Ub-ELuc luciferase, Light, Dox 75 ng/mL was found to be 0.1 relative; the Ub-ELuc luciferase, Light, Dox 500 ng/mL, 36 h light stood at 1.8 relative.
B2: the Average of the Light/Dark ratio, Dox 0 ng/mL was found to be 1.5; the Average of the Light/Dark ratio, Dox 75 ng/mL turned out to be 15.8; the Light/Dark, Dox 0 ng/mL was 1.6; the Light/Dark, Dox 75 ng/mL stood at 26.4. The Ub-ELuc luciferase, Dark, Dox 0 ng/mL was 0.2 relative; the Ub-ELuc luciferase, Dark, Dox 75 ng/mL came to 5.9 relative; the Ub-ELuc luciferase, Light, Dox 0 ng/mL worked out at 0.3 relative; the Ub-ELuc luciferase, Light, Dox 75 ng/mL came out at 76.7 relative.
In the case of B3, the Average of the Light/Dark ratio, Dox 0 ng/mL stood at 1.4; the Average of the Light/Dark ratio, Dox 75 ng/mL came to 31.6; the Light/Dark, Dox 0 ng/mL was 1.1; the Light/Dark, Dox 75 ng/mL was found to be 38.4. In addition, the Ub-ELuc luciferase, Dark, Dox 0 ng/mL was found to be 0.3 relative; the Ub-ELuc luciferase, Dark, Dox 75 ng/mL amounted to 0.3 relative; the Ub-ELuc luciferase, Light, Dox 0 ng/mL came out at 0.3 relative; the Ub-ELuc luciferase, Light, Dox 75 ng/mL came to 12.7 relative.
Take B4: the Average of the Light/Dark ratio, Dox 0 ng/mL came out at 2.2; the Average of the Light/Dark ratio, Dox 75 ng/mL is 17; the Light/Dark, Dox 0 ng/mL was 3.1; the Light/Dark, Dox 75 ng/mL is 3.1. The Ub-ELuc luciferase, Dark, Dox 0 ng/mL came out at 0.2 relative; the Ub-ELuc luciferase, Dark, Dox 75 ng/mL was found to be 0.2 relative; the Ub-ELuc luciferase, Light, Dox 0 ng/mL stood at 0.5 relative; the Ub-ELuc luciferase, Light, Dox 75 ng/mL was 0.7 relative.
Consider B5, for which the Average of the Light/Dark ratio, Dox 0 ng/mL was found to be 1.3; the Average of the Light/Dark ratio, Dox 0 ng/mL, 36 h light is 9.6; the Average of the Light/Dark ratio, Dox 75 ng/mL was found to be 32.8; the Average of the Light/Dark ratio, Dox 500 ng/mL, 36 h light is 959. Moreover, the Light/Dark, Dox 0 ng/mL stood at 1.1; the Light/Dark, Dox 0 ng/mL, 36 h light came out at 9.2; the Light/Dark, Dox 75 ng/mL worked out at 42.7; the Light/Dark, Dox 500 ng/mL, 36 h light worked out at 412. Also, the Ub-ELuc luciferase, Dark, Dox 0 ng/mL worked out at 0.2 relative; the Ub-ELuc luciferase, Dark, Dox 0 ng/mL, 36 h light came to 3.6 relative; the Ub-ELuc luciferase, Dark, Dox 75 ng/mL was 1.2 relative; the Ub-ELuc luciferase, Dark, Dox 500 ng/mL, 36 h light came out at 22.8 relative. For the same molecule, the Ub-ELuc luciferase, Light, Dox 0 ng/mL turned out to be 0.2 relative; the Ub-ELuc luciferase, Light, Dox 0 ng/mL, 36 h light was determined as 25.3 relative; the Ub-ELuc luciferase, Light, Dox 75 ng/mL amounted to 51.7 relative; the Ub-ELuc luciferase, Light, Dox 500 ng/mL, 36 h light is 9140 relative.
As for B6, the Average of the Light/Dark ratio, Dox 0 ng/mL is 3.2; the Average of the Light/Dark ratio, Dox 75 ng/mL is 22.5; the Light/Dark, Dox 0 ng/mL is 3.5; the Light/Dark, Dox 75 ng/mL is 3.4. Further, the Ub-ELuc luciferase, Dark, Dox 0 ng/mL came to 0.2 relative; the Ub-ELuc luciferase, Dark, Dox 75 ng/mL was 0.1 relative; the Ub-ELuc luciferase, Light, Dox 0 ng/mL was 0.5 relative; the Ub-ELuc luciferase, Light, Dox 75 ng/mL is 0.4 relative.
In the case of B7, the Average of the Light/Dark ratio, Dox 0 ng/mL worked out at 19; the Average of the Light/Dark ratio, Dox 75 ng/mL stood at 19.4; the Light/Dark, Dox 0 ng/mL was 30.6; the Light/Dark, Dox 75 ng/mL amounted to 22.7. The Ub-ELuc luciferase, Dark, Dox 0 ng/mL is 2.6 relative; the Ub-ELuc luciferase, Dark, Dox 75 ng/mL was 3.1 relative; the Ub-ELuc luciferase, Light, Dox 0 ng/mL is 58.1 relative; the Ub-ELuc luciferase, Light, Dox 75 ng/mL amounted to 41.4 relative.
